Here are results for three molecules from paper PMC8208975, “Extracellular mRNA transported to the nucleus exerts translation-independent function”.

Data set [1] has as its system ZC3H12D short isoform (hZC36), Alexa Fluor 488 labeled (Homo sapiens). Put plainly: FCS. The settings on record: 1 nM protein, 10 nM RNA; EMSA: 100 mM HEPES pH 7.3, 200 mM KCl, 10 mM MgCl2, 10 mM DTT, glycerol, tRNA; FCS: protein diluted in 50 mM HEPES pH 7.4, 100 mM NaCl; temperature not given. (Mobility shift assays separate free from complexed probe on a gel.)
In data set [2] the target is T1, ZC3H12D short isoform (hZC36) (Homo sapiens, UniProt A2A288-4 1-321).
T1 sequence: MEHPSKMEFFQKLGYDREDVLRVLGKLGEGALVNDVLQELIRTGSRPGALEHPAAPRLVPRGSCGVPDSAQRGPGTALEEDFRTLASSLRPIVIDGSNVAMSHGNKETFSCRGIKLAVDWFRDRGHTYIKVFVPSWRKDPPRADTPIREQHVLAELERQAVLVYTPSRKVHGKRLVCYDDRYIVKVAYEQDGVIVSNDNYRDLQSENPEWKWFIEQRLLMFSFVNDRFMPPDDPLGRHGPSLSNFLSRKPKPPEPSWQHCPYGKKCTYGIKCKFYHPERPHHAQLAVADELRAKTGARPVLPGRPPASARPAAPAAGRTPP
The data set can be described thus: EMSA; tRNA; very rough estimate by authors; EMSA: 100 mM HEPES pH 7.3, 200 mM KCl, 10 mM MgCl2, 10 mM DTT, glycerol, tRNA; FCS: protein diluted in 50 mM HEPES pH 7.4, 100 mM NaCl; temperature not given. The settings on record: protein: recombinant; tags: C-terminal myc-FLAG (pCMV6-Entry).

In data set [1], IL1b-mRNA full length came in with a Kd of 1 nM. bactin-mRNA registered a Kd in data set [1] of 1 nM.

As to UAUUUAUUUAUGUAUUUAUUGAUUGGUUGAUCUAUUUAAGUUGAUUCAAG (ssRNA) [EMSA probe 5], the Kd in data set [2] is ~31.6 nM.

One may read the Kd as the equilibrium constant for the complex coming apart.
